Experimental data published in patent publication US20220002423A1 (GENERAL HOSPITAL, published 2022).

How the values were obtained:
[1] = target: T1, Amino acid residues 66-85 of human TNFR2 (human); experiment: ELISA, antibody with TNFα added
T1 peptide: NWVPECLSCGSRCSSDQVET

[2] = target: T2, Amino acid residues 74-93 of human TNFR2 (human); experiment: ELISA, antibody with TNFα added
T2 peptide: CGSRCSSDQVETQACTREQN

[3] = target: T3, Amino acid residues 98-117 of human TNFR2 (human); experiment: ELISA, coated linear peptides 1 µg/well, antibody 0.1 µg/well
T3 sequence (peptide): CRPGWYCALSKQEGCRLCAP

[4] = target: T4, Amino acid residues 26-45 of human TNFR2 (human); experiment: as above
T4 sequence (peptide): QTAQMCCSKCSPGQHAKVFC

[5] = target: T5, Amino acid residues 106-125 of human TNFR2 (human); experiment: as above
T5 sequence (peptide): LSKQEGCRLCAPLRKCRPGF

[6] = target: T6, Amino acid residues 108-127 of human TNFR2 (human); experiment: as above
T6 sequence (peptide): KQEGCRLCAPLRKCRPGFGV

[7] = target: T7, Amino acid residues 162-181 of human TNFR2 (human); experiment: ELISA, coated linear peptides 1 µg/well
T7 peptide: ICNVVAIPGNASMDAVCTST
Experimental: ELISA was also used to determine linear epitopes present on the extracellular surface of TNFR2. Linear peptides corresponding to various regions within the TNFR2 primary sequence were purchased from GenScript (Piscataway, N.J.), diluted in coating buffer and placed on Immulon 4HBX Flat Bottom Microtiter Plates (Thermo Scientific) at a concentration of 1 μg/well. Primary TNFR2 agonistic antibodies (0.1 μg/well) were incubated with substrates. Secondary antibodies against rodent IgG were used to detect the primary antibodies. Absorbance was measured using the SPECTRAMAX® 190 Absorbance Plate Reader and analyzed with SoftMax Pro 6.3 (Molecular Devices).

[8] = target: T8, Amino acid residues 42-61 of human TNFR2 (human); experiment: ELISA on TNFR2 peptide fragment; categorical score, 0 lowest to 4 highest affinity
T8 peptide: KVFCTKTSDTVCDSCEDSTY

[9] = target: T9, Amino acid residues 122-141 of human TNFR2 (human); experiment: as above
T9 peptide: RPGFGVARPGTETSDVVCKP

[10] = target: T7, Amino acid residues 162-181 of human …; experiment: as above
[11] = target: T10, Amino acid residues 130-149 of human TNFR2 (human); experiment: as above
T10 peptide: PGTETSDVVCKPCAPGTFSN

[12] = target: T1, Amino acid residues 66-85 of human TNFR2; experiment: as above
[13] = target: T11, Amino acid residues 90-109 of human TNFR2 (human); experiment: as above
T11 peptide: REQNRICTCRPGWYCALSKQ

[14] = target: T12, Amino acid residues 154-174 of human TNFR2 (human); experiment: as above
T12 peptide: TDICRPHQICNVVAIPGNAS

[15] = target: T13, Amino acid residues 114-133 of human TNFR2 (human); experiment: as above
T13 peptide: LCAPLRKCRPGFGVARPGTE

[16] = target: T14, Amino acid residues 17-36 of human TNFR2 (human); experiment: as above
T14 peptide: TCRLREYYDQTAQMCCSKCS

[17] = target: T15, Amino acid residues 58-77 of human TNFR2 (human); experiment: as above
T15 peptide: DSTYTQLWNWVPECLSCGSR

[18] = target: T16, Amino acid residues 50-69 of human TNFR2 (human); experiment: as above
T16 peptide: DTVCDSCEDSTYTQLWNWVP

[19] = target: T17, Amino acid residues 1-20 of human TNFR2 (human); experiment: as above
T17 construct: 20-mer fragment
T17 peptide: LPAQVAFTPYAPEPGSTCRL

[20] = target: T18, Amino acid residues 138-157 of human TNFR2 (human); experiment: as above
T18 peptide: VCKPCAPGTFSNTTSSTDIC

[21] = target: T19, Amino acid residues 82-101 of human TNFR2 (human); experiment: as above
T19 peptide: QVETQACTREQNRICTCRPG

[22] = target: T2, Amino acid residues 74-93 of human TNFR2; experiment: as above
[23] = target: T20, Amino acid residues 170-189 of human TNFR2 (human); experiment: as above
T20 peptide: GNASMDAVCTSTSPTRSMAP

[24] = target: T21, Amino acid residues 146-165 of human TNFR2 (human); experiment: as above
T21 peptide: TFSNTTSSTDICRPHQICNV

[25] = target: T22, Amino acid residues 9-28 of human TNFR2 (human); experiment: as above
T22 peptide: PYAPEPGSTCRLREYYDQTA

binding result [1]: no binding
binding result [2]: no binding
Affinity [3]: 1
Reading [3]: 0
Affinity [4]: 1
Reading [4]: 0
Affinity [5]: 2
Reading [5]: 0
Affinity [6]: 2
Reading [6]: 0
binding result [7]: no binding (tested: 0.1 µg/well)
Affinity Score [8]: 0
Affinity Score [9]: 0
Affinity Score [10]: 0
Affinity Score [11]: 0
Affinity Score [12]: 0
Affinity Score [13]: 2
Affinity Score [14]: 0
Affinity Score [15]: 0
Affinity Score [16]: 0
Affinity Score [17]: 0
Affinity Score [18]: 0
Affinity Score [19]: 0
Affinity Score [20]: 0
Affinity Score [21]: 0
Affinity Score [22]: 0
Affinity Score [23]: 0
Affinity Score [24]: 0
Affinity Score [25]: 0
B1: agonistic TNFR2 antibody TNFRAG1 (antibody, V domains shown)
VH: EVQLQQFGAELVKPGASVKISCKASGYTFTDYNIDWVKQSHGKSLEWIGDINPNYDSTSYSQKFRGKATLTVDKSSSTAYMELRSLTSEDTAVYYCARGNSWYFDVWGAGTTVTVSS
VL: QIVLTQSPALMSASPGEKVTMTCSASSSVRYMYWYQQKPRSSPKPWIYLTSNLASGVPARFSGSGSGTSYSLTISSMEAEDAATYYCQQWSSNPLTFGAGTKLELK
notes: the primary antibodies were detected with secondary antibodies against rodent IgG; also called monoclonal TNFR2 antibody TNFRAG1; TNFR2 agonist antibody
